Test results reported in publication doi:10.1101/2020.09.21.306357.

Target: ACE2-Fc (soluble human ACE2 fused to human IgG Fc) (human) (UniProt Q9BYF1)
Assay: BLI

ACE2-Fc (soluble human ACE2 fused to human IgG Fc) (human), sequence (Q9BYF1 18-738): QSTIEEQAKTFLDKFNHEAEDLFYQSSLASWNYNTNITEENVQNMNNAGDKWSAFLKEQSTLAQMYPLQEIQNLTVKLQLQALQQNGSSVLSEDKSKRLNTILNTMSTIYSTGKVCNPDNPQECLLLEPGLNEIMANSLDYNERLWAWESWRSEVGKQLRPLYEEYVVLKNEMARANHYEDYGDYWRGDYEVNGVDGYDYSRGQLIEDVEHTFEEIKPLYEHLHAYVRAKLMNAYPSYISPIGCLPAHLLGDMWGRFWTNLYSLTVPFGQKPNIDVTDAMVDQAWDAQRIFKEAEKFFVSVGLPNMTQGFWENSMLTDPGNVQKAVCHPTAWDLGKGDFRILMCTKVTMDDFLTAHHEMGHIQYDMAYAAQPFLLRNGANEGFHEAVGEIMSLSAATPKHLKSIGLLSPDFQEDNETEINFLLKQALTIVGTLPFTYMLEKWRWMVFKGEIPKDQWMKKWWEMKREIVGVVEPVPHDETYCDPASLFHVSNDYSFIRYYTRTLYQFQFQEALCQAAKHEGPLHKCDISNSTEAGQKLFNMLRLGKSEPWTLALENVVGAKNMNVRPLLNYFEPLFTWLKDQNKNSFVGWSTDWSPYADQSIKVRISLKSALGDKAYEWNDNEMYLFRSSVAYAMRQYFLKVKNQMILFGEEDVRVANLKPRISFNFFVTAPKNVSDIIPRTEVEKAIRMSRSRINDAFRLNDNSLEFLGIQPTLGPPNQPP

Work on “SARS-CoV-1 S-Trimer (wild-type SARS-CoV S ectodomain fused to Trimer-Tag) (from UniProt P59594 14-1193) (domain or fragment)” yielded a Kd of 1.2 nM.
